Columns and labels:
[1] = target: T1, CD22蛋白胞外段 (CD22 extracellular domain, C-terminal His tag) (human, UniProt P20273 20-687); test: SPR, Biacore T200; CD22 amine-coupled to a CM5 chip; screening of clones by affinity
T1 construct: extracellular domain; also called CD22胞外段蛋白; CD22蛋白分子; not shown: C-terminal His tag
T1 sequence (looked up): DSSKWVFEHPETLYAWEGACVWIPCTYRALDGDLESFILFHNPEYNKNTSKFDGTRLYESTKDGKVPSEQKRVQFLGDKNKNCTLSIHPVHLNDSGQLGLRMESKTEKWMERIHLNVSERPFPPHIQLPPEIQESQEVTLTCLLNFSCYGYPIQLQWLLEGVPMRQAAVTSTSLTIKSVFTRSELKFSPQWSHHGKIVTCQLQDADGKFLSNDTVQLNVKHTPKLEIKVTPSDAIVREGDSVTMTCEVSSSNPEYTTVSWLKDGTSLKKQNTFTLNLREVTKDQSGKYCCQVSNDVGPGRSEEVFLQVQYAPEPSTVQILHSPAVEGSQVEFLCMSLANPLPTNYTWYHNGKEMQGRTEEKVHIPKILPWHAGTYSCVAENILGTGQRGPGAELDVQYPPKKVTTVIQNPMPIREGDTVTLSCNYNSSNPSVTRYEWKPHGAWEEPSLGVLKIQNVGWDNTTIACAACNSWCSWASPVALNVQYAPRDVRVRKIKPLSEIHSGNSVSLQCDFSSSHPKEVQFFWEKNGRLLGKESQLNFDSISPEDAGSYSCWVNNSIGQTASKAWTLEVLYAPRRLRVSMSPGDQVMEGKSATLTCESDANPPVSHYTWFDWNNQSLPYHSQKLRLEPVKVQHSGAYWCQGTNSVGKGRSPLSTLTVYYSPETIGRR

[2] = target: T1, CD22蛋白胞外段 (CD22 extracellular domain, …); test: SPR, Biacore T200; CD22 amine-coupled to a CM5 chip; nanobody at 2, 4, 8, 16 and 32 nM; curve fit

Kd [1]: ~10 nM
Kd [2]: 9.47 nM
B1: BA125纳米抗体 (BA125 nanobody, VHH against CD22, C-terminal His tag) (VHH)
VHH: QVQLVESGGGLVQPGGSLRLSCAASGSIFGSNTMGWFRQAPGQQRELVAAMSTLGRTSYAVSVKGRFTISRDNAKNTVYLQMNSLKPEDTAVYYCKYTGTTPRDIYWGLGTQVTVSS
notes: also called 纳米抗体BA125克隆; BA125纳米抗体VHH区; not shown: C-terminal His tag
